Results on four molecules are retold here after PMC11672753 (2024).

B1: S15-FX (Fc fusion)
chain 1: QVQLLESGGGLVQPGGSLRLSCAASGFTFSSYAMSWVRQAPGKGLEWASAISGSGGSTYYADSVEGRFTISRDNSKNTLYLQMNSLRAEDTAVYYCAKDTGYCGDDCYIKLIRGGPDYWGQGTLVTVSS
chain 2: DIVMTQSPLSLPVTLGQPASISCRSSQSLVYSDGNTFLNWFQQRPGQSPRRLIYQVSNRDSGVPDRFSGSGSGTDFTLKISRVEAEDVGVYYCMQGTHWPRTFGQGTKLEIK
modifications: N-linked glycan at Asn297 devoid of core α-1,3-fucose and β-1,2-xylose; predominantly complex GnGn (52%–54%) and M5-M9 high mannose type (22%–24%); ~15% unglycosylated sites
B2: S15-HDEL (Fc fusion)
chain 1: QVQLLESGGGLVQPGGSLRLSCAASGFTFSSYAMSWVRQAPGKGLEWASAISGSGGSTYYADSVEGRFTISRDNSKNTLYLQMNSLRAEDTAVYYCAKDTGYCGDDCYIKLIRGGPDYWGQGTLVTVSS
chain 2: DIVMTQSPLSLPVTLGQPASISCRSSQSLVYSDGNTFLNWFQQRPGQSPRRLIYQVSNRDSGVPDRFSGSGSGTDFTLKISRVEAEDVGVYYCMQGTHWPRTFGQGTKLEIK
modifications: N-linked glycan at Asn297: 88%–92% high-mannose-type N-glycans, less than 2% with α-1,3-fucose and β-1,2-xylose
B3: S15-YTE (Fc fusion)
chain 1: QVQLLESGGGLVQPGGSLRLSCAASGFTFSSYAMSWVRQAPGKGLEWASAISGSGGSTYYADSVEGRFTISRDNSKNTLYLQMNSLRAEDTAVYYCAKDTGYCGDDCYIKLIRGGPDYWGQGTLVTVSS
chain 2: DIVMTQSPLSLPVTLGQPASISCRSSQSLVYSDGNTFLNWFQQRPGQSPRRLIYQVSNRDSGVPDRFSGSGSGTDFTLKISRVEAEDVGVYYCMQGTHWPRTFGQGTKLEIK
modifications: N-linked glycan at Asn297, absent in a larger percentage (>10%) of antibodies
B4: S15 (plant-produced COVA2-15, single-chain (sc)Fv-Fc format) (Fc fusion)
chain 1: QVQLLESGGGLVQPGGSLRLSCAASGFTFSSYAMSWVRQAPGKGLEWASAISGSGGSTYYADSVEGRFTISRDNSKNTLYLQMNSLRAEDTAVYYCAKDTGYCGDDCYIKLIRGGPDYWGQGTLVTVSS
chain 2: DIVMTQSPLSLPVTLGQPASISCRSSQSLVYSDGNTFLNWFQQRPGQSPRRLIYQVSNRDSGVPDRFSGSGSGTDFTLKISRVEAEDVGVYYCMQGTHWPRTFGQGTKLEIK
modifications: N-linked glycan at Asn297, major glycoforms complex type with α-1,3 fucose and β-1,2-xylose (GnGnXF)

In this test the target is neonatal Fc receptor FcRn (FcRn-SmBiT) (UniProt P55899 24-297). Briefly: competition with IgG-LgBiT tracer (Lumit FcRn assay).
neonatal Fc receptor FcRn (FcRn-SmBiT), sequence (P55899 24-297, chain 1 of 2): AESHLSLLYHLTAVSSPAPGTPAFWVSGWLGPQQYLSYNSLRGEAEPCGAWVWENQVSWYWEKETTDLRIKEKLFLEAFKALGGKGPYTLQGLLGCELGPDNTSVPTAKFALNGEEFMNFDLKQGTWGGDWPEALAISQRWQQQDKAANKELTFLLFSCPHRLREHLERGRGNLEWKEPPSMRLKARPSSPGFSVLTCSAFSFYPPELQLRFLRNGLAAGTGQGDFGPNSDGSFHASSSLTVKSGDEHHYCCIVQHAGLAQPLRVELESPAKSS
neonatal Fc receptor FcRn (FcRn-SmBiT), sequence (chain, as listed by the source, chain 2 of 2): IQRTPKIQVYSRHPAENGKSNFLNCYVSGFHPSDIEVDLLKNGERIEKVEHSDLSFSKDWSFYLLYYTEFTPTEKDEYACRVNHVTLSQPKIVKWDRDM
By IC50 is commonly meant the concentration needed to halve the response being measured. A low value points to inhibition by little substance. Molecule B1 displayed an IC50 of 19.5 µg/mL.

B2 returned an IC50 of 8.58 µg/mL. This IC50 is about 2.3-fold lower than that of the molecule before.

B3 displayed a concentration for half-maximal inhibition (IC50) of 11.8 µg/mL.

For B4, the 50% inhibitory concentration (IC50) worked out at 32.8 µg/mL. This IC50 is about 2.8-fold higher than that of the molecule before.
